The values below come from PMC2824085.

The target of test [1] is trimeric extracellular domain (ECD) of rat macrophage galactose lectin (MGL) (rat) (UniProt P49301). As to the kind of experiment: radioligand binding; competition: CRD or ECD of MGL coated on polystyrene wells, 125I-labeled Gal-BSA as reporter ligand, competing ligand titrated; KI = concentration for 50% inhibition.
Test [2] concerns the target monomeric carbohydrate-recognition domain (CRD) of rat macrophage galactose lectin (MGL) (rat) (UniProt P49301). The description is as above.
In test [3] the target is monomeric carbohydrate-recognition domain (CRD) from DC-SIGN (UniProt Q9NNX6). As to the kind of experiment: radioligand binding; competition: CRD of DC-SIGN immobilised on polystyrene wells, 125I-labeled mannose-BSA as reporter ligand, competing ligand titrated; KI = concentration for 50% inhibition.
Chain of monomeric carbohydrate-recognition domain (CRD) from DC-SIGN (Q9NNX6 250-404): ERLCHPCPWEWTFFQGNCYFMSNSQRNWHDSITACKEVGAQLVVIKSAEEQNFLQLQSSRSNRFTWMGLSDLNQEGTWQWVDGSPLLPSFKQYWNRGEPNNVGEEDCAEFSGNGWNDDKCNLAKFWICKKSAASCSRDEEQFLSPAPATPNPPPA
For test [4] the target is unchanged. As to the kind of experiment: SPR; BiaCore 3000, CM5 chip; CRD of DC-SIGN immobilised, glycopeptide from SBA in the fluid phase; steady state; 10 mM Hepes, 150 mM NaCl, 5 mM CaCl2, 0.005% P20, pH 7.4, 25 °C. Background: In SPR one partner is held on a chip, and binding of the other changes the refractive index at the surface.
Test [5] has as its target Man9GlcNAc2 glycopeptide isolated from soybean agglutinin (soybean). The experiment in a line: SPR; BiaCore 3000, CM5 chip; SBA or its glycopeptide amine-coupled, monomeric CRD of DC-SIGN flowed over; steady state, simple saturation model with linear background; 10 mM Hepes, 150 mM NaCl, 5 mM CaCl2, 0.005% P20, pH 7.4, 25 °C.

Chain of trimeric extracellular domain (ECD) of rat macrophage galactose lectin (MGL) (rat) (P49301 59-306, tags left off): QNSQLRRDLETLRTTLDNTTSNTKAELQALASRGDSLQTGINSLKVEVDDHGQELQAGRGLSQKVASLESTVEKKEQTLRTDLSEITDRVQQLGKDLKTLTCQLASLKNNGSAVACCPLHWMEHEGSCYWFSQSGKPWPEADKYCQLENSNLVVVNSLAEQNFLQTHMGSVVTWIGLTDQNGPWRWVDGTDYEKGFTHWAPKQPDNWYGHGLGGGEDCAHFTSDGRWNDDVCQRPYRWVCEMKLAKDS
Chain of monomeric carbohydrate-recognition domain (CRD) of rat macrophage galactose lectin (MGL) (rat) (P49301 165-306): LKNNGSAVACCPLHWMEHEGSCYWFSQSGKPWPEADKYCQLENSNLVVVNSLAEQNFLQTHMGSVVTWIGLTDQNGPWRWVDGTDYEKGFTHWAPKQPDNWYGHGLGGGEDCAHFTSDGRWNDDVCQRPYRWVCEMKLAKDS

One may read the Ki as the equilibrium dissociation constant of an inhibitor or competing ligand from its target. A high value points to lower affinity. With “asialo-orosomucoid OR-5 (five glycosylation sites, expressed in Chinese hamster ovary cells) (from UniProt P02763 19-201) (natural protein)”, the Ki worked out at 0.65 µM in test [1] and 1.4 µM in test [2].
One may read the Kd as the constant that tells how readily two partners part at equilibrium. A higher Kd goes with a looser complex. Consider “Man9GlcNAc2 glycopeptide isolated from soybean agglutinin”, for which the Ki in test [3] worked out at 68 µM. In test [4], this substance yielded a Kd of 76 µM.
In test [5], “monomeric carbohydrate-recognition domain (CRD) from DC-SIGN (from UniProt Q9NNX6 250-404) (domain or fragment)” displayed a fold lower affinity than for intact SBA of 15 fold.
As to “desialylated tri-antennary glycopeptide isolated from fetuin”, the Ki was determined as 160 µM in test [1] and 260 µM in test [2].
Taken in the same sequence, the figures for “asialo-orosomucoid derived from human blood (from UniProt P02763 19-201) (natural protein)” were 0.18 µM and 0.12 µM.
